What was measured:
[1] = molecular target: human IgG antibody (manufactured by Lampire Biological Laboratories) (human); assay: column breakthrough binding capacity of human IgG, protein A on crosslinked agarose, 150 cm/hr
[2] = molecular target: human IgG antibody (manufactured by Lampire Biological Laboratories) (human); assay: column breakthrough binding capacity of human IgG, protein A on crosslinked agarose, 500 cm/hr

binding capacity [1]: 25 mg/mL
binding capacity [2]: 12 mg/mL
Substance: protein A immobilized on crosslinked agarose (MabSelect Xtra, GE Healthcare Biosciences) (from UniProt P38507 37-327)

Reference: patent US20110262748A1
